Source: PMC6451138 (Nucleic Acids Research, 2019)
Values belong to the molecule of their own block, whether it stands above or below them.

Experiments:
[1] = target: AtmtSSB1 (Arabidopsis thaliana); test: SEC
[2] = target: exonuclease deficient AtPolIB (AtPolIB exo-) (Arabidopsis thaliana); test: MST
[3] = target: AtmtSSB2 (Arabidopsis thaliana); test: SEC
[4] = target: exonuclease deficient AtPolIB (AtPolIB exo-) (Arabidopsis thaliana); test: SEC-MALS
SEC = target: the molecule itself; test: SEC
AtmtSSB1 [5] = target: T1, AtmtSSB1 (Arabidopsis thaliana, UniProt Q84J78 33-201); test: fluorescence anisotropy
T1 sequence: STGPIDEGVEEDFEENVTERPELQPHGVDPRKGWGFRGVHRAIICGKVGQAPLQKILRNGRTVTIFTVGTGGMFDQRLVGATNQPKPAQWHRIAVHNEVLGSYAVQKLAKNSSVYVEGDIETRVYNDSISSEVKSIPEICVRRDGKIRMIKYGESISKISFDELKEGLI

AtmtSSB1 [6] = target: T1, AtmtSSB1; test: fluorescence anisotropy; remark: listed apart in the source

stoichiometry N [1]: 4 | Kd [2]: 1480 nM
Molecule: AtmtSSB1 (natural protein)

stoichiometry N [3]: 4
Molecule: AtmtSSB2 (natural protein)

stoichiometry N [4]: 2
Molecule: exonuclease deficient AtPolIB (AtPolIB exo-) (enzyme)

B1: AtOSB3 (natural protein, Arabidopsis thaliana, UniProt Q8GWJ4 62-440, looked up)
chain: VATEKESTPPKKIEYKPEISNWINLIGFVEQPVQFGPCSDGKFWAGTVISQRSGSKSSNFWIPIIFEGDLAKIAVQHVKKEDRIHVSGKLFIDSPPPNVTYSQSNVQVMVQNLNFVQAATSTTKTISPPEKEVTSIKKKPARSKKVKVIDEETSNSWKHLIENPKEWLDHRGNKANGLVKPGHPDFKMKVGGLSLWLSTAPDWALLKLEELKFDVLVPKGNIKLNQLKGEESWKDLVQNPDKWLDNRSDKTNVKYPDFKHKETGEALWMTNSPIWVLSKLPPLKKNQERPFMSNKVSQLELDVEVPKGNLKQLKREEIWKNLVENPSKWWDNRLDKRNPKGPDFKHKETGEALWIGDSPTWALSKLPPLKKNQERPVMA
stoichiometry N (SEC): 4

Kd [2]: > 250000 nM
B2: AtWhirly2 (natural protein, Arabidopsis thaliana, UniProt Q8VYF7 30-238, looked up)
chain: ASWSNSSTPGRGFPGKDAAKPSGRLFAPYSIFKGKAALSVEPVLPSFTEIDSGNLRIDRRGSLMMTFMPAIGERKYDWEKKQKFALSPTEVGSLISMGSKDSSEFFHDPSMKSSNAGQVRKSLSVKPHADGSGYFISLSVNNSILKTNDYFVVPVTKAEFAVMKTAFSFALPHIMGWNRLTGHVNTEALPSRNVSHLKTEPQLELEWDK
stoichiometry N (SEC): 4

B3: AtOSB2 (natural protein, Arabidopsis thaliana, UniProt Q8GXH3 21-371, looked up)
chain: ASEITTGKRITSPQIRLYTAAAVGGKTGNGERKQRAKAPAKTPEAVTPVKPLEIASVTATTENELPRPNEIAYESEVANWVNLIGFVDQPVQFEASSDGKFWAGTVISQRSASDSSGFWIPIIFEGDLAKTAARYVSKDDQIHVSGKLFIDSPPPNMTYAQANVQVLVQNLNFIQPMSPSPSPFMVMSSSEKEESGIKKQPARAKQDIVIDEASDSWNHLIENPKEWWDHRENKVNGLVKPRHPDFKSKDSSFSLWLNKAPNWVLPKLEGLEFDVLVPKARVVKQLKGEESWKDLVQNPDKWWDNRIDKRNAKAPDFKHKETGEALWLNESPTWVLPKLPPVKKKQESIVF
stoichiometry N (SEC): 4

B4: ssDNA(45), Poly-T 45 (ssDNA)
DNA: TTTTTTTTTTTTTTTTTTTTTTTTTTTTTTTTTTTTTTTTTTTTT
Kd (AtmtSSB1 [5]): 62.8 ± 3.6 nM

B5: pssDNA-10 (Cy3) (mixed)
DNA 1: AACACTGTGAGCTTAGAGCCCCGGGG
DNA 2: CTAAGCTCACAGTGTT
binding result (AtmtSSB1 [6]): no binding
